Experimental data published in PMC10583174.

Biological target: glucagon receptor (GCGR) (mouse (endogenous in primary hepatocytes)) (UniProt Q61606)
Test: radioligand binding

Chain of UniProt Q61606 (Q61606 27-485): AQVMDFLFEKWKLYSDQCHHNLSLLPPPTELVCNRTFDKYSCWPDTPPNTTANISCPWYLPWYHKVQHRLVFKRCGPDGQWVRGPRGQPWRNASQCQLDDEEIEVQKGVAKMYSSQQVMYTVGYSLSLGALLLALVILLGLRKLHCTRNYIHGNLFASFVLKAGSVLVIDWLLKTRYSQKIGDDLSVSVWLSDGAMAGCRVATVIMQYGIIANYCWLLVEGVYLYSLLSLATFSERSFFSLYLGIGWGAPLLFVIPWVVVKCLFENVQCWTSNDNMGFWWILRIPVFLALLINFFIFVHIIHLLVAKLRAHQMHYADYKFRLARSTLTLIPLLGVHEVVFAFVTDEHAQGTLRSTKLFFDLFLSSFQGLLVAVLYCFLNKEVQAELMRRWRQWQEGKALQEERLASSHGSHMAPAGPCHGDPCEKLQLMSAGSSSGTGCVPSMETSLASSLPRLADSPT

Q: How did the fold Kd, GNE LKO over GNE WT hepatocytes turn out when glucagon (human) (peptide) was run?
A: 10 fold
